Measurements reported in paper PMC3535077.

Target: His6-tagged monovalent streptavidin (UniProt P22629)
Assay: pull-down

C-terminal AviTag Dicer, biotinylated (from UniProt Q9UPY3 1-1922) (enzyme)
percent of the Dicer sample retained on the Ni column with His6-streptavidin: 60%
